Measured values from publication PMC3876286 (ACS chemical biology, 2013).

Test system: r(CUG)12
Assay: SPR binding to r

B1: muscleblind-like 1 protein (protein, UniProt Q9NR56 1-388, looked up)
Muscleblind-like protein 1: MAVSVTPIRDTKWLTLEVCREFQRGTCSRPDTECKFAHPSKSCQVENGRVIACFDSLKGRCSRENCKYLHPPPHLKTQLEINGRNNLIQQKNMAMLAQQMQLANAMMPGAPLQPVPMFSVAPSLATNASAAAFNPYLGPVSPSLVPAEILPTAPMLVTGNPGVPVPAAAAAAAQKLMRTDRLEVCREYQRGNCNRGENDCRFAHPADSTMIDTNDNTVTVCMDYIKGRCSREKCKYFHPPAHLQAKIKAAQYQVNQAAAAQAAATAAAMTQSAVKSLKRPLEATFDLGIPQAVLPPLPKRPALEKTNGATAVFNTGIFQYQQALANMQLQQHTAFLPPVPMVHGATPATVSAATTSATSVPFAATATANQIPIISAEHLTSHKYVTQM
- koff (1): 0.00203 s⁻¹
- kon (1): 3280 M⁻¹ s⁻¹
- Kd (read-out: Kobs (1)): 619 nM
